Test: yeast display, Sf9 membrane polyspecificity reagent, FACS + sequencing; frameworks hold sequencing errors
Procedure, shortened: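 A synthetic nanobody library was expressed on Saccharomyces cerevisiae BJ5465 by galactose induction for 36–48 hours. The library was stained for 1 hour at 4 °C with 10% biotinylated, detergent-solubilized Sf9 membrane reagent and enriched with streptavidin microbeads before FACS. Low and high (top ~1%) gates were set on anti-HA fluorescence for expression and streptavidin fluorescence for reagent binding, and each polyreactivity label reflects the gate of origin.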

Sequence	polyreactivity (PSR sort gate)
QVQLVESGGGLVQAGGSLRLSCAASGITFYGYTMGWYRQAPGKERELVAAITSGGNTYYADSVKGRFTISRDNAKNPVYLQMNCLKPEDTAVYYCAARRYCYTSITWCDYWRQGTQVTVSS	high polyreactivity
QVQLVESGGGLVQAGGSLRLSCAASGSIFPYYAMGWYRQAPGKERELVAAITWSGGNTYYADSVKGRFTISRDNAKNTVYLQMNSLKPEDTAVYYFNALYRKYTGYDGYDYWGQGTQVTVSS	high polyreactivity
QVQLVESGGGLVQAGGSRRLSCAASGSTFDFYVMGWYRQAPGKERELVAAIRWSGGSTYYADSVKGRFTISRDNAKNTVDLPMTRLKPEDTAVDYCPADGDHYGYSYYYGYGYWGQGTQVTVSS	high polyreactivity
QVQLVESGGGLVQAGGSLRLSCAASGFTFSYNAMGWYRQAPGKERELVAAISSTGTSTYYADSVKGRFTISRDNAKNTVYLQMNSLKPEDTAVYYCNAYGYDGYYAGRHGYWGQGTQVTVSS	low polyreactivity
QVQLVESGGGLVQAGGSLRLSCAASGGTFGTYAMGWYRQAPGKERELVAAITRSGGSTYADSVKGRFTISRDNAKNTVYLQMNSMKPEDTAVYYCNTRTTWRRYVVNGYDYWGQGTQVTVSS	low polyreactivity
QVQLVESGGGLVQAGGSLRLSCAASGSTFGKNAMGWYRQAPGKERELVAAITRGSGSTYYADSVKGRFTISRDNAKNTVYLQMNSLKPEDTAVYYCAARRYRLSTPEFNYWGQGTQVTVSS	high polyreactivity
QVQLVESGGGLVQAGGSLRLSCAASGFIFYGYAMGWYIQAPGKERELVATISRRGGSTYYADSVKGRFTISRDNAKNTVYLQMNSLKPEDSAVYYCAKRRGTQEPTYVPTRSNGFDYWGHGTQVTVSS	low polyreactivity
QVQLVESGGGLVQAGGSLRLSCAASGSTFNDYDMGWYRQAPGNERELVAAISSGGSTYYADSVKGRFTISRDNAKNTVYLQMNSLKPEDTAVYYCAAVLGVWGGVGSEGDFWGQGTQVTVSS	low polyreactivity
QVQLVESGGCLVQEGGSLRLSCAASGITFYLYAMGWYSQGPGKERELVATISRSGGSTYADSVKGRFTISRDNAKNNVYLQRNSLKPEDTAVDYCNADGWYGYWGQGTQVTVSS	low polyreactivity
QVQLVESGGGLVQAGGSLRLSCAASGRIFGANAMGWYRQAPGKERELVAAISYSGSRTYYADSVKGRFTISRDNAKNTVYLQMNSLKPEDTAVYYCNTGIAGRRSGYRTDSDYWGQGTQVTVSS	high polyreactivity
QVQLVESGGGLVQAGGSLRLSCAASGSTFDNYAMGWYRQAPGKERELVATITSGGSITNYADSVKGRFTISRDNAKNTVYLQMYSLKPEDTAVYYCAKRRYFYYRGDYWGQGTQVTVSS	high polyreactivity
QVQLVESGGGLVQAGVSLRLSCAASGSTFTSYAMGWYRQAPGKERELVAAINDSAGSTYYADSVKGRFTISRDNAKNTAYLQKNSLKPDDTAVYYCAADGYNRQYVTYYYWGQGTQVTVSS	low polyreactivity
HVQLVESGGGLVQAGGSLRLSCAASGSTFGGNAMGWYRQAPGKERELVAAISKSGGRTFYADSVKGRFTISRDNAKNTVYLQMISLKPEDTAVYYCAAQYRGYGYWGQGTQVTVSS	high polyreactivity
QVQLVESGGGLVQAGGSLRLSCAASGRIFQNYALGWYRQAPGKERELVATISSGVSTYYADSVKGRFTISRDNAKNTVYLQMNSLKPEDTAVYYCAAYVPWFEMDYWGQGTQVTVSS	low polyreactivity
QVQLVESGGGLVQAVGSLRLSSAASRSTFGLNAMGWYRQAPGKESELVAAITFSGGSTYYADSVKGRFTISRDNANNTVYLQKNSLKPEDTAVYYCAARFSLEGGYYWGQGTQVTVSS	low polyreactivity
QVQLVESGGGLVQAGGSLRLSCAASGLTLYYYAMGWYRQAPGKERELVAAMSYSGGSTYYADSVKGRFTISRDNAKNPVYLQMNSVKPEDTAVYYCAAVGDSDIRDEYWGQGTQVTVSS	low polyreactivity
QVQLVESGGGLVQAGGSLRLSCAASGYTLRPNGMGWYRQAPGKERELVAAISSGGSTYYADSVKGRFTISRDNAKNTVYLQMNSLKPEDTAVYYCAAEYWYDYWGQGTQVTVSS	low polyreactivity
QVQLVESGGGLVQAGGSLRLSCAASGSIFLGNAMGWYRQAPGKERELVAAITSRGGRTYYADSVKGRFTISRDNAKNTVYLLMNSLKPEDTAVYYFAVLGFGALDFDSWGQGTEVTVSS	high polyreactivity
QDQLVESGGGLVQAGGSLRLSCAASGFTFYFYAMGWYRQAPGKERELVDAISRSGSRTYYADSVKGRFTISRDNAKNSVYLQMNILKPEDTAVYYCARVRPRGLYFVLHYDYWGQGTQVTVSS	high polyreactivity
QVQLVESGGGLVQAGGSLRLSCAASGRTFRYNAMGWYRQAPGKERELVASIRYSSASTYYADSVKGRFTISRDNAKNTVYLQMNSLKPVDTAVYYCAASWYPVFVGYDYWGQGTQVTVSS	high polyreactivity
QVQLVESGGGLVQAGGSLRLSCAASGIIFRFYAMGWYRQAPGKERELVAAITSSGGSTYYADSVKGRFTISRDNAKNTVYLQMNSLKPEDTAVYYCATSTGPYRGRFYYWGQGTQVTVSS	high polyreactivity
QVQLVESRGGLVQAGGSLRLSCAASGRTIGLNAMGWYRQAPRKERELVASAITGGGDSTYYADSVKGRFTMSRDNAKNPVYLQMNSVKPEDTAVYYCAKRYSRGSQYDYWGQGTQVTVSS	high polyreactivity

Sequence	polyreactivity (PSR sort gate)
QVQLVESGGGLVQAGGSLRLSCAASGSIFSYYAMGWYRQAPGKERELVAAISYTGGTTYYADSVKGRFTISRDNAKNTVYLQMNSLKPEDTAVYYCAAQWWWNRPVRYEYWGQGTQVTVSS	low polyreactivity
QVQLVESGGGLVQAGGSLRLSCAASGITFARYAMGWYRQAPGKETELVAALSKRGGRTYYADSVKGRFTISRDNAKNTVYLQMNSLKPEDTAVYYCATDYYVSTDYNYWGQGTQVTVSS	high polyreactivity
QLQLVESGGGLVQAGGSLRLSCAASGRIFVKYAMGWYRQAPGKERELVAAISNGASTNYADSVKGRFTISRDNAKNTVYLQMNSLKPEDTAVYYCAASFSRYYRKRYDYWGQGTQVTVSS	high polyreactivity
QVQLVESGGGLVQAGGSLRLSCAASGTFSFYAMGWYRQAPGKERELVAAITRSSSRTYYADSVKGRFTISRDNAKNTVYLQMNSLKPEDTAVYYCRAKQVNRFDYWGQGTQVTVSS	high polyreactivity
QVQLVESGRGLVQAGGSLRLSCAASGGTFGWYAMGWYRQAPGKERELVAAISQGGGSTYYADSVKGRFTISRDNAKNTVYLQMNSLKPEDTAVYYCAAYLGRAKGYEYWGQGTQVTVSS	high polyreactivity
QVQLVESGGGLVQAGGSLRLSCAASGLTFRFYAMGWYRQAPGKERELVAVISGRGTSTYYADSVKGRFTISRDNAKNTVYLLMNSLKPEDTAVYYCAARYVAYAYVGNDYWGQGTQLTVSS	high polyreactivity
QVQLVESGGGLVQAGGSLRLSCASSGITFDKYAMGWYRQAPGKERELVAAISGSDGSTYYADSVKGRFTISRDNAKNTVYLQNNSLKPEDTAVYYCAAESEYAGTYEYDYWGQGNQVTVSS	low polyreactivity
QVQLVESGGGLVQAGGSLRLSCAASGRTFGYNAMGWYRQAPGKERELVAVIRSGGSTSYADSVKGRFTISRDNAKNTVYLQMNSLKPEDTAVYYCAATGLYNVTSPYSYKYDYWGQGTQVTVSS	low polyreactivity
QVQLVESGGGLVQAGGSLRLSCAASGRTFVGNALGGYIQAPGKERELVAAISSGGSTYYADSVKGRFTISRDNAKITVYLQMNSLNPEDTAVYYCAGLYRRGAHGDYWGQGTQVTVSS	low polyreactivity
QVQLVESGGGLVQAGGSLRLSCAASGLTIFVNAMGCYRQAPGKERELVATISGGGSTYYADSVKGRFTISRDNAKNTVYLQMNSLKPEDTAVYYCNADVLFYTYYTRGRFDFDYWGQGTQVTVSS	low polyreactivity
QVQLVESGGGLVQAGGSLRLSCAASGISDWYAMGWSRQAPGKERELVASITDGGSTKYADSVKGRFTISRDNAKNTVYLQMNSLKPEDTAVYYCNNTFRVYFSRSWWSRYYYWGQGTQVTVSS	low polyreactivity
QVQLVESGGGLVQAGGSLRLSCAASGRTFYSYAMGWYRQAPGTERELVAAITSSGGRTYYADSVKGRFTISRDNAKNTVYLQMNSLKPEDTAVYYCAAKWITRRGGDFDYWGQGTQVTVSS	high polyreactivity
QVQLVESGGGLVQAGGSLRLSCAASGSIFEHYAMGWYRQAPGKERELVATISSASRTNYADSVKGRFTISRDNAKNTVYLQMNSLKPEDTAVYYCAARFYYVWYGPYYYWGQGTQVTVSS	high polyreactivity
QVQLVESGGGLLQAGGSLRLSCAASGFTFHKNAMGWYRQAPGKERELVAAISRSGGRTYYADSVKGRFTISRDNAKNTVYLQMNSLKPEDTAVYYCNATPLLWAGYDYWGQGTQVTVSS	high polyreactivity
QVQLVESGGGLVQAGGSLRLSCAASGITFSRNAMGWYRQAPGKERELVAVISTRGGRTYYADSVKGRFTISRDNAKNTVYLQMISLKPEDTAVYYCAASPDPYWRRMDYWGQGTQVTVSS	high polyreactivity
QVHLVESGGGLVQAGGSLRLSCAASGRTFYLYTMGWYRQAPGKEREFVAIISRSGASTRYADSVKGRFTISRDNAKNTVYLQMNSLKPEDTAVYYCAAYVGYPYDYWGQGTQVTVSS	high polyreactivity
QVQLVESGGGLVQAGGSLRLSCAASGRIITAYAMGWYRQAPGKEREFVAAINVSGGSTYYADSVKGRFTISRDNAKNTVYLQMDSLKPEDSAVYYCNADYYYYDIYWWQMDYWGQGTQVTVSS	low polyreactivity
QVQLVESGGGLVQAGGSLRLSCAASGRIFVRNALGWYRQAPGKERELVAGINSGGGTTYADSVKGRFTISRDNAKNTVYLQMNSLKPEDTAVYYCAAGYWTRYWSWVDYWGQGTQVTVSS	high polyreactivity
QVQLVESGGGLVQAGGSLRLSSPASGRTFPGNPMGWYRQAPGKLRELVAAITRVRSTYYADSVKGRFTISRDNAKNTVYLQMNWLKPEDTVVYYCAADRLEGSYEDDATGFDDWGQGTQVTVSS	low polyreactivity
QVQLVESGGGLVQAGGSLRLSCAASGIIFDYYAMGWYRQAPGKERELVAAISKRGGSTYYADSVKGRFTISRDNAKNTVYLQMNSLKPEDTAVYYCAAEYSKRWWYYYWGQGTQVTVSS	high polyreactivity
QVQLVESGGGLVQAGGSLRLSCAASGRNFYRNAMGWSRQAPGKERELVAAITGSGGITYYADSVKGRFTISRDNAKYTVYLQMNRLKPEDTGVYYCNARYYSHRYDYWGQGTQVTVSS	high polyreactivity
